Source: the Human Domainome abundance scans (Beltran et al. 2025)
± gives the uncertainty stated by the source.

B1: CD2-associated protein, residues 271 to 331; numbered along this chain, Q9Y5K6 (parent)
chain: KEYCRTLFAYEGTNEDELTFKEGEIIHLISKETGEAGWWRGELNGKEGVFPDNFAVQINEL

Variants of: B1
Assay: abundance fitness (aPCA) (normalised: wild type 0, dead -1); higher = more abundant; growth selection in yeast, the domain comes from the species named
Conditions: Homo sapiens

Variant | abundance fitness
KEYCRTLFAYEGTNEGELTFKEGEIIHLISKETGEAGWWRGELNGKEGVFPDNFAVQINEL [D16G] | 0.051 ± 0.048
KEYCRTLFAYEGTNECELTFKEGEIIHLISKETGEAGWWRGELNGKEGVFPDNFAVQINEL [D16C] | -0.128 ± 0.078
KEYCRTLFAYEGTNEAELTFKEGEIIHLISKETGEAGWWRGELNGKEGVFPDNFAVQINEL [D16A] | -0.061 ± 0.055
KEYCRTLFAYEGTNESELTFKEGEIIHLISKETGEAGWWRGELNGKEGVFPDNFAVQINEL [D16S] | -0.003 ± 0.048
KEYCRTLFAYEGTNELELTFKEGEIIHLISKETGEAGWWRGELNGKEGVFPDNFAVQINEL [D16L] | -0.091 ± 0.04
KEYCRTLFAYEGTNEKELTFKEGEIIHLISKETGEAGWWRGELNGKEGVFPDNFAVQINEL [D16K] | 0.026 ± 0.087
KEYCRTLFAYEGTNEMELTFKEGEIIHLISKETGEAGWWRGELNGKEGVFPDNFAVQINEL [D16M] | -0.194 ± 0.057
KEYCRTLFAYEGTNEHELTFKEGEIIHLISKETGEAGWWRGELNGKEGVFPDNFAVQINEL [D16H] | -0.008 ± 0.098
KEYCRTLFAYEGTNERELTFKEGEIIHLISKETGEAGWWRGELNGKEGVFPDNFAVQINEL [D16R] | -0.062 ± 0.044
KEYCRTLFAYEGTNEFELTFKEGEIIHLISKETGEAGWWRGELNGKEGVFPDNFAVQINEL [D16F] | -0.002 ± 0.073
KEYCRTLFAYEGTNEIELTFKEGEIIHLISKETGEAGWWRGELNGKEGVFPDNFAVQINEL [D16I] | -0.699 ± 0.19
KEYCRTLFAYEGRNEDELTFKEGEIIHLISKETGEAGWWRGELNGKEGVFPDNFAVQINEL [T13R] | 0.042 ± 0.053
KEYCRTLFAYEGLNEDELTFKEGEIIHLISKETGEAGWWRGELNGKEGVFPDNFAVQINEL [T13L] | -0.082 ± 0.05
KEYCRTLFAYEGNNEDELTFKEGEIIHLISKETGEAGWWRGELNGKEGVFPDNFAVQINEL [T13N] | -0.078 ± 0.093
KEYCRTLFAYEGFNEDELTFKEGEIIHLISKETGEAGWWRGELNGKEGVFPDNFAVQINEL [T13F] | -0.416 ± 0.1
KEYCRTLFAYEGYNEDELTFKEGEIIHLISKETGEAGWWRGELNGKEGVFPDNFAVQINEL [T13Y] | -0.257 ± 0.1
KEYCRTLFAYEGQNEDELTFKEGEIIHLISKETGEAGWWRGELNGKEGVFPDNFAVQINEL [T13Q] | 0.122 ± 0.083
KEYCRTLFAYEGINEDELTFKEGEIIHLISKETGEAGWWRGELNGKEGVFPDNFAVQINEL [T13I] | -0.183 ± 0.15
KEYCRTLFAYEGENEDELTFKEGEIIHLISKETGEAGWWRGELNGKEGVFPDNFAVQINEL [T13E] | -0.042 ± 0.062
KEYCRTLFAYEGWNEDELTFKEGEIIHLISKETGEAGWWRGELNGKEGVFPDNFAVQINEL [T13W] | -0.475 ± 0.093
KEYCRTLFAYEGHNEDELTFKEGEIIHLISKETGEAGWWRGELNGKEGVFPDNFAVQINEL [T13H] | -0.197 ± 0.12
KEYCRTLFAYEGVNEDELTFKEGEIIHLISKETGEAGWWRGELNGKEGVFPDNFAVQINEL [T13V] | -0.083 ± 0.048

Variant | abundance fitness
KEYCRTLFAYEGSNEDELTFKEGEIIHLISKETGEAGWWRGELNGKEGVFPDNFAVQINEL [T13S] | -0.051 ± 0.053
KEYCRTLFAYEGKNEDELTFKEGEIIHLISKETGEAGWWRGELNGKEGVFPDNFAVQINEL [T13K] | 0.108 ± 0.066
KEYCRTLFAYEGPNEDELTFKEGEIIHLISKETGEAGWWRGELNGKEGVFPDNFAVQINEL [T13P] | -0.594 ± 0.089
KEYCRTLFAYEGGNEDELTFKEGEIIHLISKETGEAGWWRGELNGKEGVFPDNFAVQINEL [T13G] | -0.018 ± 0.064
KEYCRTLFAYEGTNMDELTFKEGEIIHLISKETGEAGWWRGELNGKEGVFPDNFAVQINEL [E15M] | -0.23 ± 0.1
KEYCRTLFAYEGTNWDELTFKEGEIIHLISKETGEAGWWRGELNGKEGVFPDNFAVQINEL [E15W] | -0.343 ± 0.069
KEYCRTLFAYEGTNSDELTFKEGEIIHLISKETGEAGWWRGELNGKEGVFPDNFAVQINEL [E15S] | -0.138 ± 0.07
KEYCRTLFAYEGTNCDELTFKEGEIIHLISKETGEAGWWRGELNGKEGVFPDNFAVQINEL [E15C] | -0.123 ± 0.11
KEYCRTLFAYEGTNKDELTFKEGEIIHLISKETGEAGWWRGELNGKEGVFPDNFAVQINEL [E15K] | -0.268 ± 0.11
KEYCRTLFAYEGTNHDELTFKEGEIIHLISKETGEAGWWRGELNGKEGVFPDNFAVQINEL [E15H] | -0.004 ± 0.18
KEYCRTLFAYEGTNYDELTFKEGEIIHLISKETGEAGWWRGELNGKEGVFPDNFAVQINEL [E15Y] | -0.261 ± 0.16
KEYCRTLFAYEGTNGDELTFKEGEIIHLISKETGEAGWWRGELNGKEGVFPDNFAVQINEL [E15G] | -0.107 ± 0.061
KEYCRTLFAYEGTNTDELTFKEGEIIHLISKETGEAGWWRGELNGKEGVFPDNFAVQINEL [E15T] | -0.27 ± 0.09
KEYCRTLFAYEGTNDDELTFKEGEIIHLISKETGEAGWWRGELNGKEGVFPDNFAVQINEL [E15D] | 0.027 ± 0.18
KEYCRTLFAYEGTNPDELTFKEGEIIHLISKETGEAGWWRGELNGKEGVFPDNFAVQINEL [E15P] | -0.027 ± 0.082
KEYCRTLFAYEGTNVDELTFKEGEIIHLISKETGEAGWWRGELNGKEGVFPDNFAVQINEL [E15V] | -0.329 ± 0.11
KEYCRTLFAYEGTNNDELTFKEGEIIHLISKETGEAGWWRGELNGKEGVFPDNFAVQINEL [E15N] | -0.184 ± 0.16
KEYCRTLFAYEGTNFDELTFKEGEIIHLISKETGEAGWWRGELNGKEGVFPDNFAVQINEL [E15F] | -0.43 ± 0.11
KEYCRTLFAYEGTNIDELTFKEGEIIHLISKETGEAGWWRGELNGKEGVFPDNFAVQINEL [E15I] | -0.281 ± 0.13
KEYCRTLFAYEGTNRDELTFKEGEIIHLISKETGEAGWWRGELNGKEGVFPDNFAVQINEL [E15R] | -0.12 ± 0.048
KEYCRTLFAYEGTNADELTFKEGEIIHLISKETGEAGWWRGELNGKEGVFPDNFAVQINEL [E15A] | -0.072 ± 0.073
KEYCRTLFAYEGTNLDELTFKEGEIIHLISKETGEAGWWRGELNGKEGVFPDNFAVQINEL [E15L] | -0.208 ± 0.061
